Measurements: PMC3164098 (2011)
Ends that are not written are not given here.

Target: T1, 12/1 peptide
T1 chain: MPRFMDYWEGLN-NH2
Assay: ITC

Kd: 240 nM
B1: MDM2 18-125 (protein)
chain: QIPASEQETLVRPKPLLLKLLKSVGAQKDTYTMKEVLFYLGQYIMTKRLYDEKQQHIVYCSNDLLGDLFGVPSFSVKEHRKIYTMIYRNLVVVNQQESSDSGTSVSEN
